Laboratory results: the DeepSol protein solubility set

Assay: soluble on expression in E. coli; label from the status in PepcDB or PDB records

Sequence | soluble on expression in E. coli
MKLAVIAANGQAGKAIVEEAVKRGHEVTAIVRSENKSQAESIIKKDLFELTKDDLTGFDAVISAFGAYTPDTLPLHSKSIELFNQLLAGTQTRFLVVGGAGSLYIDETKTTRLLDTPDFPEEFKPLAKAQADELDLLRTKNNLNWTFVSPAVDFIPDGEKTGNYILAGEIFTTNEKGISQISYADYAIGLVDELEKGHHIKERISLLEKLEHHHHHH | soluble
MKLGFVGAGRVGSTSAFTCLLNLDVDEIALVDIAEDLAVGEAMDLAHAAAGIDKYPKIVGGADYSLLKGSEIIVVTAGLARKPGMTRLDLAHKNAGIIKDIAKKIVENAPESKILVVTNPMDVMTYIMWKESGKPRNEVFGMGNQLDSQRLKERLYNAGARNIRRAWIIGEHGDSMFVAKSLADFDGEVDWEAVENDVRFVAAEVIKRKGATIFGPAVAIYRMVKAVVEDTGEIIPTSMILQGEYGIENVAVGVPAKLGKNGAEVADIKLSDEEIEKLRNSAKILRERLEELGY | soluble
MKLIVSGKNLEVTEGLREAVEKQISKLEKYFKPEVEAHVTLSVEKNRQIVEVTIPFNGVILRGEETNNDMYASIDIVGDKLERQVRKQKTKLERRKYSDSLKFQNIPDYHKEEQEPEIVKTKRFAIKPMSEEEAVLEMELLGHNFFVFQNGDSNEVNVVYKRKDGNYGLIEPEFLEHHHHHH | soluble
MKLKGKGIGKVVVEGEVIVSRKPLSFLGGVDPETGTITDPESDIKGESITGKILVFPKGKGSTVGSYILYALSKNGKGPKAIIVEEAEPIVTAGAIISGIPLITNVDISKLKTGMRVRINPQEGEVEILAEGNLLEHHHHHH | not soluble
MKLKSNNIYEKMNQYSVVGLSLAVIRDGKLDETAAFGTLESGTNRTVTIDSIFNSCSISKFITTILILTLSDLKIVHLDEDVNDRLTSWNIPTNLFTSQKKVTLRNLLSHQSGIIDPPNSFEHYLLAQGQPNMSELLAGKTLYCSVPIEVTYKPESEFHYSDANFCIIEILLEDITGKPFNLLLEESIFQPLQMKNSTIFSPEDIDKTDAFACGHNKDGTVTNEKYPFYPFAAASGIWTTPTDLSALVIEIIHSLQGKGKLKLSQKTVQDMISPQGCSKWTGLGVFLDDLNEDLQIYSLGWGVGFQCMMICYPYRGNGAIIMTNADLGVHQMEGIIGDVLKTLSL | not soluble
MKLLILFSLFAIFFGVIALDSPIPEFYSTGRSTRVPSHRHRIPRLGKREVPNFQADNVPEAGGRVRRYVGPPLKLVILI | not soluble
MKLLLHICCGPCAVYPVNVLREEGIYFEGLFYNPNIHPYDEFIRRKENVKKLSEIKNVPVKYMDDFSQEIWEKLGEDNEKRCNMCYALRIDKVAGYAKENGFDAFTTTLLVSPYQKHELIVELSKRAGEKYGIEFFYKDFRPGFRQGQQEAKELGLYRQKYCGCIISYREAEKLKSERKSK | soluble
MKLNRAIGVIDSGVGGLTVAKELIRQLPKERIIYLGDTARCPYGPRSREEVRQFTWEMTEHLLDLNIKMLVIACNTATAVVLEEMQKQLPIPVVGVIHPGSRTALKVTNTYHVGIIGTIGTVKSGAYEEALKSINNRVMVESLACPPFVELVESGNFESEMAYEVVRETLQPLKNTDIDTLILGCTHYPILGPVIKQVMGDKVQLISSGDETAREVSTILYHSKMLNEGEEQSDHLFLTTGKIGLFKEIASKWFGQPIENVKHIHLEKE | not soluble
MKLSESRGETEKHRRQQHFEHELKNMISSLTHMGGDKAGPSQYDEEEDGIRVITLSGSNLGATMKTELDNNHGDRDQNGDHELDFLSTYVNSNFQAVNNSIMIGAKYETHDPGVHLDISGDVEKPSVKIPARSSRGKKGKTPARSDRRESEHTN | soluble
MKLSLVLTARDDGARRLLADTQRQLDRTAKSRAQLERQSHTYALTGIRSEKQIQREIMLTQAAFNRLARSGKASQNDLARAAVATRNRIRELNAELKQGTGFADKMGKIGRFGAAAVAGGAAAYTVLKPAMDNRKQLDENINRVSRQAFIEDNSKSAAWIATEGAQQIKDLALELVEKNGGTHDKALDLISGMMTTGLNFAQTKNEAQAAYAFALASEGSGEDTAKLIKTLKDGGMSGKDLQLGLEHVLQSGLDGTFEVRDMVRELPSLLSAAQQAGMNGVGGLDYLLSLLQSAANKSGSPAEAATNVQNLLSKTLSPDTIGRLKKMANPNDPKKGVDWIGSVVQGKQNGENAVQVLSRLADAMLVKDKQYQDYKKRAAAGDKTAAEQANMLKGALLAQLLPDLQAKQGLLAATDMTQIREYMASLAGVTLDNGKIAKNNEARMLSAAAQQEQQESLAMLRESLTGTLVDMETSFKKLAAEYPNATLALQALTTAATAASAAMLLTAGGGKGAGFLKDVGSKALGWGKASAGGVAAGATAAGGKLLSWGKSAGSGLMNNPALVKRAGLLGMLLYSESLGDGTLPKGLRGTKTTPEMINRLKNNGIRFEPAPKREQARGGVPQYLAAPSAQPTDKMLSPLFSTQTAAYQAAIQQQTAAYQAALAQDTAAVTTGLAQVQSAMASASQTINTNVSLNIDGRVIANEVSRYQVAMFGRGAGQ | not soluble
MKLTLWTYEGPPHVGAMRVATAMKDLQLVLHGPQGATYADLLFTMIERRNARPPVSFSTFEASHMGTDTAILLKDALAAAHARYKPQAMAVALTCTAELLQDDPNGISRALNLPVPVVPLELPSYSRKENYGADETFRALVRALAVPMERTPEVTCNLLGATALGFRHRDDVAEVTKLLATMGIKVNVCAPLGASPDDLRKLGQAHFNVLMYPETGESAARHLERACKQPFTKIVPIGVGATRDFLAEVSKITGLPVVTDESTLRQPWWSASVDSTYLTGKRVFIFGDGTHVIAAARIAAKEVGFEVVGMGCYNREMARPLRTAAAEYGLEALITDDYLEVEKAIEAAAPELILGTQMERNIAKKLGLPCAVISAPVHVQDFPARYAPQMGFEGANVLFDTWVHPLVMGLEEHLLTMFREDFEFHDAAGASHHGGKAVAREESPVAPADLAPAATSDTPAAPSPVVVTQASGEIRWMPEAERELRKIPFFVRGKAKRNTELYAAHKGVCDITVETLYEAKAHYAR | soluble
MKLTVKRSVFLQELQTVQRAISSKTTIPILTGVKIVLSEDGLSLTGSNADISIESFLSKDDEKAQMTIERTGSIVLQSRFFGEIIRKLPEDMFTMEVLDNNQVAITSGKADFTVNGLDADNYPHLPVIDTQNQMKLPVHLLTKIISETGFAVSMHESRPILTGVHFILENQKLLAVATDSHRLSQRVIPTEQAVEDFNIVIPGKSLTELSRSLTNEEEMVEISIMENQVLFKTETMYFYSRLLEGNYPDTNRLIPTSHNTQIEFYVPELLSAIERASLLSHEGRNNIVRLSISPDSVVLYGNSPEIGKVEEALNYENVSGEALDISFNPDYMKDALRAFGDMNITVKFLSPIRPFTLEPTETELDFIQLITPVRTN | not soluble
MKLVDALGKPCPIPVIETKKALAELGLAGGTIEVLVDNEVAIENLKKLATKKQATLTAKQIEATVFSVKITVPEEATQQTSQSATDLVITIGSDQLGTGDEQLGRLLMKSYLQSLSEAETVPTQLLFFNRGAFLTNQAANTLADLQQLAEKGTTIQTCGACLDFYHLTDTLAIGSITNMYEIVETMNQAAKVITLLEHHHHHH | soluble
MKLYSILVFHKNVDTSDVKLFKSECDLSSFSFFQRGSVQEFMTFTAKLLVERSGLGARSSVKENEYLVHCYVRNDGLSAVCVTDAEYQQRVAMSFLGRVLDDFTTRVPATQWPGIRSDKDCSYTGLKDLLEKWQNPREADPMTRVQEEVEETKMVMHNTIQSVLDRGEKLDDLVKKSENLSDQSKMFYTSARKMNKCCNYV | not soluble
MKMEVPQVDLPLEVLAWTKVTEDILNIYKQSCRLQACIFAICTEGTMKVSINLLEYEVHPNDLITLLPGTIIQFREKAEKVSLCFAGFSAKCIGHINLLTTIGNAYPKLIEQPIIPLSENIADYLKEYFALLSHASCDESFKMDSKLADLSLQTILTSIQLMYRNYSGNNHSNRKKEICRKLIQLITEHYKDQRCAQFYADQLGISLQHLSTTVKQVTGKSVLDTIAYIVIIDAKAQLKGTDMTIQEIAYSLNFPNPSFFCKFFRRHVGMSPLEFRNS | not soluble
